Values belong to the binder of their own block, whether it stands above or below them. Square brackets hold non-standard residues; d marks the D form. pS = N[C@@H](COP(=O)(O)O)C(=O)O
Legend:
[1] = biological target: T1, Saccharomyces cerevisiae Cdh1 WD40 domain (residues 241-550) (S. cerevisiae, UniProt P53197 241-550); test: crystal structure
T1 sequence (looked up): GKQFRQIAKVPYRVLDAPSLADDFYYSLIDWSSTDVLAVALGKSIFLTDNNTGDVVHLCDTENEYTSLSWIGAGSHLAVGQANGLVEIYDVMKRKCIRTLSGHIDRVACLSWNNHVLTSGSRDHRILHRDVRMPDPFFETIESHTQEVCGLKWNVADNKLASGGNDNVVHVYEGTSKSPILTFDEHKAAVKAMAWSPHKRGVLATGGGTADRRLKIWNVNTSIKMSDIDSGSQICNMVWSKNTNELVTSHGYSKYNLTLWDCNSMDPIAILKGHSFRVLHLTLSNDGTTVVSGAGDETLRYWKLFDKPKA

[2] = biological target: T1, Saccharomyces cerevisiae Cdh1 WD40 …; test: SAXS
[3] = biological target: T1, Saccharomyces cerevisiae Cdh1 WD40 …; test: AUC
[4] = biological target: T1, Saccharomyces cerevisiae Cdh1 WD40 …; test: SEC-MALS

B1: Acm1 central inhibitory region (residues 59-128) (domain or fragment, S. cerevisiae, UniProt Q08981 59-128, looked up)
chain: AQFMLYEETAEERNIAVHRHNEIYNNNNSVSNENNPSQVKENL[pS]PAKICPYERAFLREGGRIALKDLSVD
- binding result [1]: binds

B3: Acm1^ΔN (Acm1 residues 59-209), wild type (domain or fragment, S. cerevisiae, UniProt Q08981 59-209, looked up)
chain: AQFMLYEETAEERNIAVHRHNEIYNNNNSVSNENNPSQVKENLSPAKICPYERAFLREGGRIALKDLSVDEFKGYIQDPLTDETIPLTLPLGDKKISLPSFITPPRNSKISIFFTSKHQGQNPETKISRSTDDVSEKKVVRKLSFHVYEDE
- binding result [3]: binds

Further lines, results first:

- binding result [2]: binds
B2: Acm1^CIR-mNEN (Acm1^CIR-N90A/E91A/N92A) (domain or fragment, S. cerevisiae, UniProt Q08981 59-128, looked up)
chain: AQFMLYEETAEERNIAVHRHNEIYNNNNSVSAAANPSQVKENLSPAKICPYERAFLREGGRIALKDLSVD

- binding result [4]: binds
B4: Acm1^ΔN-T161A (Acm1 residues 59-209, T161A) (domain or fragment, S. cerevisiae, UniProt Q08981 59-209, looked up)
chain: AQFMLYEETAEERNIAVHRHNEIYNNNNSVSNENNPSQVKENLSPAKICPYERAFLREGGRIALKDLSVDEFKGYIQDPLTDETIPLTLPLGDKKISLPSFIAPPRNSKISIFFTSKHQGQNPETKISRSTDDVSEKKVVRKLSFHVYEDE

— PMC3690534 (Molecular Cell, 2013)
